Results from patent US20080004215.

What was measured:
[1] = biological target: WGMDY1 (WGMDY1 fused to a 10-mer cell-penetrating peptide sequence of HIV tat-1 protein, unphosphorylated form)
[2] = biological target: pWGMDY1 (WGMDY1 fused to a 10-mer cell-penetrating peptide sequence of HIV tat-1 protein, phosphorylated form)

B1: purified glutathione S-transferase (GST) fusion of the phosphatase domain of SHP2 (protein)
chain: GFWEEFETLQQQECKLLYSRKEGQRQENKNKNRYKNILPFDHTRVVLHDGDPNEPVSDYINANIIMPEFETKCNNSKPKKSYIATQGCLQNTVNDFWRMVFQENSRVIVMTTKEVERGKSKCVKYWPDEYALKEYGVMRVRNVKESAAHDYTLRELKLSKVGQGNTERTVWQYHFRTWPDHGVPSDPGGVLDFLEEVHHKQESIMDAGPVVVHCSAGIGRTGTFIVIDILIDIIREKGVDCDIDVPKTIQMVRSQRSGMVQTEAQYRFIYMAVQHYIETLQRRIEEEQKSKRKGHEYTNIKYSLADQTSGDQSPLPPCTPTPPCAEMREDSARVYENVGLMQQQKSFR
in vitro phosphatase assay: dephosphorylation of para-nitrophenolphosphate (pN) by P, absorbance (OD) at 405 nm at the 5 minutes time point [1]: Addition of pWGMDY1, but not WGMDY1, inhibited the dephosphorylation reaction
in vitro phosphatase assay: dephosphorylation of para-nitrophenolphosphate (pN) by P, absorbance (OD) at 405 nm at the 5 minutes time point [2]: Addition of pWGMDY1, but not WGMDY1, inhibited the dephosphorylation reaction
